Experiment [1] deals with T1, recombinant human TL1A (human, UniProt O95150 71-251).
T1 construct: homotrimer; biotinylated for SPR capture; the ELISA paragraphs say only 'recombinant TL1A'; also called TNFSF15
T1 chain: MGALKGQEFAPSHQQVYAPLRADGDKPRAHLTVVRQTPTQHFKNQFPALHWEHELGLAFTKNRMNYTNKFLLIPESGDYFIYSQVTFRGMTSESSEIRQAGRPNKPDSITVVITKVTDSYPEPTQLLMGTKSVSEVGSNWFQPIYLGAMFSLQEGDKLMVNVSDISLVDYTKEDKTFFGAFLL
As to the kind of experiment: competition ELISA vs bio-TL1A-0002. Here is the method: For this competition ELISA assay procedure, 96-well high binding plates (Corning, product number 3590) were coated with 1 μg/mL recombinant TL1A in 100 μL/well in Phospate Buffered Saline (PBS) overnight at 4° C. Plates were then blocked in PBS+0.02% casein solution and washed with PBS+0.05% Tween-20 following standard ELISA protocol. […] Plates were washed with PBS+0.05% Tween-20 following standard ELISA protocol, and Streptavidin-HRP (Southern Biotech, product number 7100-05) diluted to 1:10,000 in assay buffer was added to plates and incubated for 25-30 minutes at room temperature. Next, the plates were washed with PBS+0.05% Tween-20 following standard ELISA protocol, and then TMB substrate (BioFX Laboratories, catalog number TMBW-0100-01) was added to plates. Reactions were stopped after approximately 5 minutes by adding 0.18 M ortho-phosphoric acid to each well and absorbance was read at 450 nm.

The target in experiment [2] is T2, recombinant human TL1A (human, UniProt O95150 71-251).
T2 construct: Homotrimeric cytokine; biotinylated with Sulfo-NHS-biotin where captured for SPR, coated unlabelled in ELISA, soluble in bioassays; also called TNFSF15
T2 chain: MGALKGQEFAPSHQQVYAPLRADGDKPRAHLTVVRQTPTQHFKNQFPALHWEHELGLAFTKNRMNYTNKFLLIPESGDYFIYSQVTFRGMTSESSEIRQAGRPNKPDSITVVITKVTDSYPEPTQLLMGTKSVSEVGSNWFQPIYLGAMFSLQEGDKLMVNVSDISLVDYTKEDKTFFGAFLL
As to the kind of experiment: SPR 37 C, biotinylated human TL1A captured, bispecific injected. Here is the method: (§1) SPR was utilized to determine if the affinity constants of each arm of the bispecific variants binding human IL-23, containing the p40 subunit, and human TL1A were the same for each bispecific approach. For the analysis of the p40 binding arm, kinetic assays were conducted at 37° C. using a collection rate of 10 Hz on a Biacore™ 8 K+ instrument (GE Healthcare). An anti-human IgG antibody (anti-human Fc, GE Healthcare, 22-0648-88) was amine coupled to all four flow cells of a carboxymethylated dextran coated sensor chip (GE Healthcare,) using the manufacturer's recommended protocol. […] For the analysis of the TL1A binding arm, kinetic assays were conducted at 37° C. using a collection rate of 10 Hz on a Biacore™ T200 instrument (GE Healthcare).

Experiment [3] deals with T3, human IL-23 (human, UniProt P29460 23-328; Q9NPF7 20-189).
T3 construct: Heterodimer p40/p19; Whole entries as named; also called IL-23 Human; recombinant human IL-23
T3 sequence 1: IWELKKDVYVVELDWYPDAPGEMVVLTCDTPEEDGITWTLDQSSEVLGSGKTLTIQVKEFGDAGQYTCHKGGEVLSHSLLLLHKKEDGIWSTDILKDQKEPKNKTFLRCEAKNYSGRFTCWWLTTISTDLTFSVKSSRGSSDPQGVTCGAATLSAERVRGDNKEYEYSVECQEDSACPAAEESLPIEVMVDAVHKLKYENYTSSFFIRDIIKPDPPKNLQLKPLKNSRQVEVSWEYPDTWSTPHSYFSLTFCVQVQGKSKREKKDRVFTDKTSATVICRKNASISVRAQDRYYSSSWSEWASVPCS
T3 sequence 2: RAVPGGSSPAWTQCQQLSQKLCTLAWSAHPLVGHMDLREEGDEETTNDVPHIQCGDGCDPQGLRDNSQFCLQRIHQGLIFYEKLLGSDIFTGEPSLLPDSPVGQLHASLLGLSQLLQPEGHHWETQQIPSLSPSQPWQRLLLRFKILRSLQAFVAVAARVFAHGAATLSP
In words: SPR 37 C, bispecific captured by anti-human Fc, human IL-23 injected. Here is the method:
as §1

Experiment [4] addresses T3, human IL-23. In words: SPR, bispecific held on captured biotinylated human TL1A, then human IL-23 injected (simultaneous binding). On the procedure: SPR was used to determine if the bispecific variants could simultaneously bind TL1A and IL-23, containing the p40 domain. For this analysis, a semi-quantitative SPR method was developed using Biacore™ T200 (GE Healthcare) instrumentation. […] The bispecific was injected for 90 seconds at a concentration of 20 μg/m L, a flow rate of 50 μL/minute, and captured to a level of approximately 40-150 RU. Next, recombinant human IL-23 was injected for 60 seconds and a flow rate of 50 μL/minute at a concentration range of 0.37-15 nM.

B1: TL1A-0047 (antibody, human IgG1, kappa, V domains shown)
VH: EVQLVESGGGLVQPGGSLRLSCAASGYDFTYYGISWVRQAPGKGLEWVAWISTYNGNTHYARMLQGRFTISRDNAKNSLYLQMNSLRAEDTAVYYCARENYYGSGAYRGGMDVWGQGTTVTVSS
VL: EIVLTQSPATLSLSPGERATLSCRASQSVSSYLAWYQQKPGQAPRLLIYDASNRATGIPARFSGSGSGTDFTLTISSLEPEDFAVYYCQQRSNWPWTFGQGTKVEIKR
notes: IgG1/kappa; VH graft on IGHV3-7*01
With B1, in experiment [1], the “Bioactivity relative to TL1A-0002” value came out at 1.2 fold and the IC50 worked out at 5.3 nM.

B2: TL1A-0055 (antibody, human IgG1, kappa, V domains shown)
VH: EVQLVESGGGLVQPGGSLRLSCAASGYDFTYYGISWVRQAPGKGLEWVAWISTYNGNTHYARMLQGRFTISRDNAKNSLYLQMNSLRAEDTAVYYCARENYYGSGAYRGGMDVWGQGTTVTVSS
VL: EIVMTQSPATLSLSPGERATLSCRASQSVSSYLAWYQQKPGQAPRLLIYDASNRATGIPARFSGSGSGTDFTLTISSLQPEDFAVYYCQQRSNWPWTFGQGTKVEIKR
notes: IgG1/kappa; IGHV3-7*01 / IGKV3D-7*01 grafts
Regarding B2, in experiment [1], the “Bioactivity relative to TL1A-0002” value was 1 fold and the IC50 turned out to be 4.4 nM.

B3: TL1A-0052 (antibody, human IgG1, kappa, V domains shown)
VH: QVQLVQSGAEVKKPGASVKVSCKASGYDFTYYGISWVRQAPGQGLEWMGWISTYNGNTHYARMLQGRVTMTRDTSISTAYMELSRLRSDDTAVYYCARENYYGSGAYRGGMDVWGQGTTVTVSS
VL: DIQMTQSPSSLSASVGDRVTITCRASQSVSSYLAWYQQKPGKAPKLLIYDASNRATGVPSRFSGSGSGTDFTLTISSLQPEDFATYYCQQRSNWPWTFGQGTKVEIKR
notes: IgG1/kappa; IGHV1-2*02 / IGKV1-39*01 grafts
In the case of B3, in experiment [1], the “Bioactivity relative to TL1A-0002” value turned out to be 0.8 fold and the IC50 amounted to 3.5 nM.

B4: TL1A-0051 (antibody, human IgG1, kappa, V domains shown)
VH: EVQLVESGGGLVQPGGSLRLSCAASGYDFTYYGISWVRQAPGKGLEWVAWISTYNGNTHYARMLQGRFTISRDNAKNSLYLQMNSLRAEDTAVYYCARENYYGSGAYRGGMDVWGQGTTVTVSS
VL: DIQMTQSPSSLSASVGDRVTITCRASQSVSSYLAWYQQKPGKAPKLLIYDASNRATGVPSRFSGSGSGTDFTLTISSLQPEDFATYYCQQRSNWPWTFGQGTKVEIKR
notes: IgG1/kappa; IGHV3-7*01 / IGKV1-39*01 grafts
On to B4, for which, in experiment [1], the “Bioactivity relative to TL1A-0002” value came to 1 fold and the IC50 is 4.5 nM.

B5: p40TL1A-0024 (bispecific antibody, human IgG1, kappa)
heavy 1: EVQLVQSGAEVKKPGESLKISCKGSGYSFTTYWLGWVRQMPGKGLDWIGIMSPVDSDIRYSPSFQGQVTMSVDKSITTAYLQWNSLKASDTAMYYCARRRPGQGYFDFWGQGTLVTVSSASTKGPSVFPLAPSSKSTSGGTAALGCLVKDYFPEPVTVSWNSGALTSGVHTFPAVLQSSGLYSLSSVVTVPSSSLGTQTYICNVNHKPSNTKVDKKVEPKSCDKTHTCPPCPAPEAAGAPSVFLFPPKPKDTLMISRTPEVTCVVVDVSHEDPEVKFNWYVDGVEVHNAKTKPREEQYNSTYRVVSVLTVLHQDWLNGKEYKCKVSNKALPAPIEKTISKAKGQPREPQVYTLPPSREEMTKNQVSLTCLVKGFYPSDIAVEWESNGQPENNYKTTPPVLDSDGSFFLYSRLTVDKSRWQQGNVFSCSVLHEALHSHYTQKSLSLSPGK
light 1: not shown
heavy 2: QVQLVQSGAEVKKPGASVKVSCKASGYDYTYYGISWVRQAPGQGLEWMGWISTYNTGTHYAPSLQGRVTMTTDTSTSTAYMELRSLRSDDTAVYYCARESYYGSGAFRGGMDVWGQGTTVTVSSASTKGPSVFPLAPSSKSTSGGTAALGCLVKDYFPEPVTVSWNSGALTSGVHTFPAVLQSSGLYSLSSVVTVPSSSLGTQTYICNVNHKPSNTKVDKKVEPKSCDKTHTCPPCPAPEAAGAPSVFLFPPKPKDTLMISRTPEVTCVVVDVSHEDPEVKFNWYVDGVEVHNAKTKPREEQYNSTYRVVSVLTVLHQDWLNGKEYKCKVSNKALPAPIEKTISKAKGQPREPQVYTLPPSREEMTKNQVSLTCEVKGFYPSDIAVEWESNGQPENNYKTTPPVLDSDGSFFLYSKLTVDKSRWQQGNVFSCSVLHEALHSHYTQKSLSLSPGK
light 2: not shown
notes: dual cell, E/R, LS
Take B5: the Kd in experiment [2] worked out at 0.273 nM; in experiment [3], 0.9 nM; in experiment [4], 0.107 nM. In addition, the off-rate constant (koff) in experiment [2] was determined as 5.99e-05 s⁻¹; in experiment [3], 0.00157 s⁻¹; in experiment [4], 0.000571 s⁻¹. Besides, the kon came to 219000 M⁻¹ s⁻¹ in experiment [2], 1.75e+06 M⁻¹ s⁻¹ in experiment [3] and 5.32e+06 M⁻¹ s⁻¹ in experiment [4].

B6: p40TL1A-0001 (bispecific antibody)
heavy 1: EVQLVQSGAEVKKPGESLKISCKGSGYSFTTYWLGWVRQMPGKGLDWIGIMSPVDSDIRYSPSFQGQVTMSVDKSITTAYLQWNSLKASDTAMYYCARRRPGQGYFDFWGQGTLVTVSSASTKGPSVFPLAPSSKSTSGGTAALGCLVKDYFPEPVTVSWNSGALTSGVHTFPAVLQSSGLYSLSSVVTVPSSSLGTQTYICNVNHKPSNTKVDKKVEPKSCRKTHTCPRCPAPEAAGAPSVFLFPPKPKDTLMISRTPEVTCVVVDVSHEDPEVKFNWYVDGVEVHNAKTKPREEQYNSTYRVVSVLTVLHQDWLNGKEYKCKVSNKALPAPIEKTISKAKGQPREPQVYTLPPSREEMTKNQVSLTCLVKGFYPSDIAVEWESNGQPENNYKTTPPVLDSDGSFFLYSRLTVDKSRWQQGNVFSCSVLHEALHSHYTQKSLSLSPGK
light 1: not shown
heavy 2: QVQLVQSGAEVKKPGASVKVSCKASGYDYTYYGISWVRQAPGQGLEWMGWISTYNTGTHYAPSLQGRVTMTTDTSTSTAYMELRSLRSDDTAVYYCARESYYGSGAFRGGMDVWGQGTTVTVSSASTKGPSVFPLAPSSKSTSGGTAALGCLVKDYFPEPVTVSWNSGALTSGVHTFPAVLQSSGLYSLSSVVTVPSSSLGTQTYICNVNHKPSNTKVDKKVEPKSCEKTHTCPECPAPEAAGAPSVFLFPPKPKDTLMISRTPEVTCVVVDVSHEDPEVKFNWYVDGVEVHNAKTKPREEQYNSTYRVVSVLTVLHQDWLNGKEYKCKVSNKALPAPIEKTISKAKGQPREPQVYTLPPSREEMTKNQVSLTCEVKGFYPSDIAVEWESNGQPENNYKTTPPVLDSDGSFFLYSKLTVDKSRWQQGNVFSCSVLHEALHSHYTQKSLSLSPGK
light 2: not shown
notes: dual cell, EEE/RRR, LS
With B6, the equilibrium dissociation constant (Kd) in experiment [2] was 0.167 nM; in experiment [3], 0.901 nM; in experiment [4], 0.09 nM. The koff in experiment [2] was 4.28e-05 s⁻¹; in experiment [3], 0.00156 s⁻¹; in experiment [4] it was 0.000584 s⁻¹. For the same molecule, the results for the on-rate (kon) in experiment [2], in experiment [3] and in experiment [4] were 256000 M⁻¹ s⁻¹, 1.73e+06 M⁻¹ s⁻¹ and 5.98e+06 M⁻¹ s⁻¹, respectively.

In general, IC50 refers to the concentration at which inhibition is half-maximal. In general, Kd refers to the free concentration of one partner at which half of the binding sites on the other are occupied at equilibrium, for simple one-to-one binding. A word on the koff: it is the rate constant with which the complex falls apart. By kon is commonly meant a measure of how fast the partners come together.

The values are drawn from US20240059799A1 (Pfizer, published 2024).
